Source: patent US20150351390A1, “COMPOSITIONS AND METHODS FOR AUXIN-ANALOG CONJUGATION” (PIONEER HI-BRED INTERNATIONAL, INC., priority 2012, published 2015)

B1: AtGH3-6: GH3 protein, accession Q9LSQ4 (protein, listed as Arabidopsis thaliana)
chain: MPEAPKIAALEVSDESLAEKNKNKLQFIEDVTTNADDVQRRVLEEILSRNADVEYLKRHGLEGRTDRETFKHIMPVVTYEDIQPEINRIANGDKSQVLCSNPISEFLTSSGTSGGERKLMPTIEEELDRRSLLYSLLMPVMDQFVPGLDKGKGMYFLFIKSESKTPGGLPARPVLTSYYKSSHFKNRPYDPYTNYTSPNQTILCSDSYQSMYSQMLCGLCQHKEVLRVGAVFASGFIRAIKFLEKHWPELARDIRTGTLSSEITDSSVREAVGEILKPDPKLADFVESECRKTSWQGIITRLWPNTKYVDVIVTGTMSQYIPTLDYYSNGLPLVCTMYASSECYFGVNLRPLCKPSEVSYTLIPNMAYFEFLPVHRNSGVTSSISLPKALTEKEQQELVDLVDVKLGQEYELVVTTYAGLYRYRVGDVLSVAGFKNNAPQFSFICRKNVVLSIDSDKTDEVELQNAVKNAVTHLVPFDASLSEYTSYADTSSIPGHYVLFWELCLNGNTPIPPSVFEDCCLTIEESLNSVYRQGRVSDKSIGPLEIKMVESGTFDKLMDYAISLGASINQYKTPRCVKFAPIIELLNSRVVDSYFSPKCPKWSPGHKQWGSN
B2: CcGH3: GH3 protein, accession AAS02074 (protein)
chain: MAVDSVLSSPLGPPACEKDAKALQFIEEMTRNADAVQQRVLDEILTRNSQTEYLKRFKLDGVSDRETFKSRIPVVTYEDLQPEIQRIANGDRSPILSAHPISEFLTSSGTSAGERKLMPTIKEELDRRQLLYSLLMPVMNLYVPGLDKGKGLYFLFIKSETKTPGGLLARPVLTSYYKSEHFKSRPHDPYNVYTSPNEAILCADSFQSMYTQMLCGLYEREQVLRLGAVFASGLVRAIRFLQLHWPQLAHDIRTGNLNPQITNLSLCERMGKIMRPNPELADFVAGECCKENWEGIITRIWPKTKYLDVIVTGAMAQYIPTLDYYSGGLPKACTMYAASECYFGLNLNPMCKPSEVSYTIMPNMGYFEFLPHDSTTTNSSPTNLVDLVDVEVGKEYELVITTYAGLYRYRVGDILRVTGFHNSAPQFHFVRRKNVLLSIDADKTDEAELQKAVENASKLLREFNTSVVEYTSYADTKTIPGHYVIYWELLMKDLKNSPSDEVLNKCCLAMEESLNTVYRQGRVACNSIGPLEIRVVKNGTFEELMDYAISRGASINQYKVPRCVNFAPILELLDSRVMSSHFSPSLPQWTPERRR
modifications: Capsicum chinense
B3: GmGH3-21: GH3 protein, accession CAA42636 (protein)
chain: MAIATCDHDKNAKALQFIEDMTQNTESVQERVLAEILSQNSQTEYLKRFELNGATDRDTFKSKVPVVSYDDLKHDIHRIANGDRSPILCAHPISEFLTSSGTSAGERKLMPTIRQEMDRRQLIFSLPMPVMNQYVTDMDKGKALIFLFTKAEQKTPSGLVARPVSASMYKSDQFKNRPYDPYNVYTSPDEAILCPDSFQSMYTQMLCGLIMRHQVLRVGANFASGLLRSIHLLQLNWAQLSHDISTGTLNPKITDPAIKQRMTQILKPDPELAEFIVKECSGENWERIIPRIWPNTKYVEVVVTGAMAQYVPTLDYYSGGLPLASNIYGSSECFFGINLNPFCNPSDVSYTIMPNMGYFEFLPQDHDDASSSSGSSFTLSRLIDLDDVELGKSYEIVVTTYSGLCRYRVGDILRVTGFHNTAPQFSFVRRKNVLLSIDSDKTDEAELQNAVEKASVLLKEFKTSVVEYTSFADTKSIPGHYVIYWELLMKDSSNAPTTEALEQCCLTMEESLNAVYRQGRVADHSIGPLEIRVVKNGTFEELMDYAISRGASISQYKVPRCVTFTPITELLDSRVESVHFSPSEPHWTPERRR
modifications: Glycine max
B4: MtGH3: GH3 protein, accession ABN09059 (protein, listed as Medicago truncatula)
chain: MPTSLDYDLSQKNKKTLDFIEDITTHADEIQKKVLAEILNRNANVEYLQRHGLNGHTDSETFKKLLPIITYEDIQNDINLIANGDTSPILTSNPISNFLTSSGTSGGERKLMPATEEEFGRRYLLYSYLMPIMSQFIPDLEKGKGMYLMFIKNESKTPGGIKASPVLTNYYKSSHFLNRPYDPYTNFTSPNETVLCLDSYQSMYSQLLCGLIQNNEVLRVGAVFASGLIRAIRFLEKNWRLLCNDIRTGTLDLLITDDSVREAVMKILKPNKNLADFVEGECNKGSWQGIITRLWPNTKYVDVIVTGTMSQYIPTLDYYSNGLPLVCTMYASSECYFGVNLNPLSKPCHVSYTLIPTMCYYEFLPVNRSNCEVNGSIPPSTTKSLGEKKYQEVVDLVDVKLGQEYELVVTTYAGLYRYKVGDVLKVTGFKNKAPQFSFVCRKNVVLSIESDKTDEVELQNAMKNAVTHLAPFEADVAEYTSYADTTTIPGHYVLYWELNLKGSTKIPHSVYEDCCLTIEESLNSVYRQGRVSDKSIGPLEIKIVEQGTFDKLMDYAINLGASINQYKTPRCVKFAPMVELLESRVMAKYFSPKCPKWVPGHKKWNNE
B5: NtGH3: GH3 protein, accession AAD32141 (protein, listed as Nicotiana tabacum)
chain: MAVDSVLSSPLGPPACEKDAKALQFIEEMTRNADAVQERVLNEILTRNSQTEYLKRFKLDGVSDRETFKNKIPVVTYEDLQPEIQRIANGDRSPILSAHPISEFLTSSGTSAGERKLMPTIKEELDRRQLLYSLLMPVMNLYVPGLDKGKGLYFLFIKSETKTPGGLLARPVLTSYYKSEHFKRRPHDPYNVYTSPNEAILCADSFQSMYTQMLCGLYEREQVLRLGAVFASGLVRAIRFLQLHWPQLAHDIRTGTLNPEITDPSICERMGLVMRPNPKLADFVTDECSKENWEGIITRIWPKTKYLDVIVTGAMAQYIPTLDYYSGGLPKACTMYAASECYFGLNLNPMCKPSEVSYTIMPNMGYFEFLPHDPNSSRDSTRNLVDLVDVEVGKEYELVITTYAGLYRYRVGDILRVTGFHNSAPQFHFVRRKNVLLSIDSDKTDEAELQRAVENASKLLKEFNTSVVEYTSYADTKTIPGHYVIYWELLMKDLNNSPSDEVLNKCCLAMEESLNTVYRQGRVACNSIGPLEIRVVKNGTFEELMDYAISRGASINQYKVPRCVSFAPILELLDSRVMSRHFSPSLPQWTPERRH
B6: PiGH3-16: GH3 protein, accession CAJ14972 (protein)
chain: MPQAKREEGIESVQESIIIATTERNRKALDFIEHATIHAAEVQAEVLLEILTRNAYTEYLERYQLTGRTDRKSFKERLPVITYEDLQPEILRIANGDMSPILSAHPISEFLTSSGTSAGERKIMPTIHEELKRRTLLYSLLMPVMNQYMKGLDKGKGMYFLFVKSETRTPGGLLARPVLTSYYKSQDFIERPYDPYNVYTSPMEAILCSDSYQSMYCQLLCGLAQNHEVLRVGAVFASGLLRAIRFLEEHWQSLCQDIRSGTVNDEEVTDPCLRESVMKILHPNTQLADLIRTECSKESWQGIITRLWPNARYLDVIVTGAMAQYIKTLDFYSGGLPQVCTMYASSECYFGINLKPLCQPWEVSYTLMPNMAFFEFLPVYRNKNEDAGPVTTATEQPAELVDLVDVKVGQEYELVITTYSGLYRYRVGDVLRVTGFHNAAPQFQFVCRKNVMLSIDADKTDEAELHNAVMNAVKHLEPLEATLVEYTSYTDTSTIPGHYVLYWELRTSALPVPPSVFEDCCLTVEESLNSVYRQCRVADKSIGPLEIKVVEMGTFDKLMDYAISRGSSINQYKAARCVKFAPMVDILNSRVSASYFSPRCPKWTAGRTQWGALPR
modifications: Pinus pinaster

Assay: LC-MS assay of GH3 conjugation of 2,4-D with Asp or Glu
Assay type: biochemical
Settings: conjugation of 2,4-D with Asp by recombinant GH3 protein; 2,4-D-Asp product by LC-MS; 5 mM 2,4-D substrate
Summary of the method: (§1)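 Kinetic parameters come from Michaelis-Menten fits of initial velocities. Velocities reflect LC-MS quantification, against standards, of Asp or Glu conjugates formed by purified GH3 (44 to 164 μg/mL) with 5 mM ATP and MgCl2 at pH 8.0, 30° C.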

| Molecule | kcat (hrs−1) 2,4-D-Asp |
| --- | --- |
| B1 | 2.136 h⁻¹ |
| B2 | 2.517 h⁻¹ |
| B3 | 27.468 h⁻¹ |
| B4 | 1.494 h⁻¹ |
| B5 | 1.990 h⁻¹ |
| B6 | 0.379 h⁻¹ |

Same assay, conditions: conjugation of 2,4-D with Glu by recombinant GH3 protein; 2,4-D-Glu product by LC-MS; 5 mM 2,4-D substrate

| Molecule | kcat (hrs−1) 2,4-D-Glu |
| --- | --- |
| B1 | 0.598 h⁻¹ |
| B2 | 0.577 h⁻¹ |
| B3 | 22.910 h⁻¹ |
| B4 | 0.122 h⁻¹ |
| B5 | 0.804 h⁻¹ |
| B6 | 0.089 h⁻¹ |

Assay: LC-MS assay of GH3 conjugation of IAA with Asp or Glu
Assay type: biochemical
Settings: conjugation of IAA with Asp by recombinant GH3 protein; IAA-Asp product by LC-MS
Summary of the method: as §1

| Molecule | kcat (hrs−1) IAA-Asp |
| --- | --- |
| B1 | 447.107 h⁻¹ |
| B2 | 414.234 h⁻¹ |
| B3 | 1087.519 h⁻¹ |
| B4 | 337.033 h⁻¹ |
| B5 | 716.658 h⁻¹ |
| B6 | 656.761 h⁻¹ |

Same assay, conditions: conjugation of IAA with Glu by recombinant GH3 protein; IAA-Glu product by LC-MS

| Molecule | kcat (hrs−1) IAA-Glu |
| --- | --- |
| B1 | 14.154 h⁻¹ |
| B2 | 15.608 h⁻¹ |
| B3 | 1075.524 h⁻¹ |
| B4 | 11.549 h⁻¹ |
| B5 | 34.341 h⁻¹ |
| B6 | 51.037 h⁻¹ |
